Laboratory results as given in patent US9493537.

Molecular target: melanocortin-1 (MC1) receptor on B16/F1 murine melanoma cells (mouse (B16/F1 murine melanoma cells)) (UniProt Q01727)
Assay: cell-based or functional assay

melanocortin-1 (MC1) receptor on B16/F1 murine melanoma cells (mouse (B16/F1 murine melanoma cells)), sequence (Q01727 whole entry): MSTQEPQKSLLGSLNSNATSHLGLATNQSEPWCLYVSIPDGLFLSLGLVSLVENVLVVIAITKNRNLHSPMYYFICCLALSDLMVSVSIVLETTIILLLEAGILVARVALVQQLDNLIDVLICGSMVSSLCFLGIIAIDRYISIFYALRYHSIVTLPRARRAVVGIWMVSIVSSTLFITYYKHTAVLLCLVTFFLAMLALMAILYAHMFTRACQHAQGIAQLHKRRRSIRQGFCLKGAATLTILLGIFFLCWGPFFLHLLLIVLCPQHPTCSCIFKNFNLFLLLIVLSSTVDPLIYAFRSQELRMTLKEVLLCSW

tumor uptake in B16/F1 melanoma-bearing C57 mice at 2 h blocked by co-injection of non-radioactive NDP-MSH	tumor uptake in B16/F1 melanoma-bearing C57 mice blocked by 10 µg (6.07 nmol) of non-radiolabeled NDP-MSH	Substance
95.6%	–	111In-DOTA-GENle-CycMSHhex (peptide)
–	98%	111In-DOTA-GGNle-CycMSHhex (peptide)
